Experimental data reported in patent US20240156865A1 (BIONOXX, published 2024).
Like-named read-outs stand apart in the source and are kept apart here.

T1: A56-C-His (recombinant protein A56 with C-terminal His tag, produced in HEK293F cells) (vaccinia virus, UniProt P08714 17-279)
T1 chain: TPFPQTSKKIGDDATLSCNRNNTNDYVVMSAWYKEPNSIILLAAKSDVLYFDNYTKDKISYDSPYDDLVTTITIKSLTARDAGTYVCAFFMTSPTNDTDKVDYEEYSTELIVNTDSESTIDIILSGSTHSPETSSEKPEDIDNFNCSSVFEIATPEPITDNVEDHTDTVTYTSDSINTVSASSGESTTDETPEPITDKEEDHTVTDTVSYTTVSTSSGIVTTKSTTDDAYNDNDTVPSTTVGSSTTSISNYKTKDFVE

B1: anti-A56 antibody Ab16 (antibody, V domains shown)
VH: QVQLQQSGPGLVKPSQTLSLTCAISGDSVSSNSAAWNWIRQSPSRGLEWLGRTYYRSKWYNDYAVSVKSRITINPDTSKNQFSLQLNSVTAVDTAVYYCAKSYAGPISYYYYGLDVWGQGTTVTVSS
VL: QSALTQPASVSGSPGQSVTISCTGTSSDIGRYNLVSWYQQHPGKAPKLMIYGGSKRPSGVSNRFSGSNSDNTASLTISGLRAEDEADYYCSSYASSSTPYVFGTGTKVTVL
notes: also called SA2041; A56-02B08
B2: anti-A56 antibody Ab01 (antibody, V domains shown)
VH: QMQLVQSGAEVKKPGSSVKVSCKASGGTFSSYAISWVRQAPGQGLEWMGGIIPIFGTANYAQKFQGRVTMTRDTSTSTVYMELSSLKSEDTAVYYCARFVFGSGTYLDSWGQGTLVTVSS
VL: not shown
notes: also called SA2026; A56-01A02
B3: anti-A56 antibody Ab13 (antibody, V domains shown)
VH: QMQLVESGAEVKKTGSSVKVSCKASGDTLTYRFLHWVRQAPGQAPEWMGWITPFNDNTNYAQKFQDRVTITRDRSMSTAYMELSSLRSEDTAVYYCATGGGNNYYGMEVWGQGTPITVSS
VL: SYELTQPLSLSVSPGQTASITCSGDKLGDKFTSWYQQQPGQSPVLVIYQDAKRPSGIPERFSGSNSGSTATLTISGTQSMDEADYYCQAWDSSSVVFGGGTKLTVL
notes: also called SA2038; A56-02A02
B4: anti-A56 antibody Ab18 (antibody, V domains shown)
VH: QVQLVESGGGLVQPGKSLRLSCAASGFTFSTYGMTWVRQAPGKGLEWVSGISGGGSSTNYADSVKGRFIISRDNSNNTLYLQMNSLRAEDTAVYYCARWGVMLSFDYWGQGTPVTVSS
VL: DIQMTQSPSTLPASVGDRVTITCRASYSVSPWLAWYQQKPGKAPKLLIYKASTLESGVPSRFSGSGSGTEFTLTISSLQPDDFATYYCQQFNSYMMYTFGQGTKLEIK
notes: also called SA2043; A56-02C06
B5: anti-A56 antibody Ab19 (antibody, V domains shown)
VH: QVQLVESGAEVRRPGSSVKVSCKTSGVTFSGYVLSWVRQAPGHGLEWMGRIIPLIDVENYAREFQGRMKITADKSTNTVYMELNNLRSEDTAVYYCAKSVVRGLDYYYYGFDVWGQGTTVTVSS
VL: SYELTQPPSLSVAPGKTARITCGGNNIGSKSVHWYQQKPGQAPRLVTYYDGNRPSGIPERFSGSNSGNTATLIISRVEAGDEADYYCQVWDSSSDQGVFGTGTKVTVL
notes: also called SA2044; A56-02C07

Key:
[1] = biological target: T1, A56-C-His (recombinant protein A56 with …)
[2] = biological target: T1, A56-C-His (recombinant protein A56 with …); test: ELISA (row 'KD (M) by ELISA')
[3] = biological target: T1, A56-C-His (recombinant protein A56 with …); test: ELISA on coated A56 (100 ng), fit; R square 0.9821
[4] = biological target: T1, A56-C-His (recombinant protein A56 with …); test: OCTET (row 'KD (M) by OCTET'; the legend calls it SPR)
[5] = biological target: T1, A56-C-His (recombinant protein A56 with …)
[6] = biological target: T1, A56-C-His (recombinant protein A56 with …); test: ELISA (row 'KD (M) by ELISA')
[7] = biological target: T1, A56-C-His (recombinant protein A56 with …); test: ELISA on coated A56 (100 ng), fit; R square 0.9969
[8] = biological target: T1, A56-C-His (recombinant protein A56 with …); test: OCTET (row 'KD (M) by OCTET'; the legend calls it SPR)
[9] = biological target: T1, A56-C-His (recombinant protein A56 with …); test: ELISA (row 'KD (M) by ELISA')
[10] = biological target: T1, A56-C-His (recombinant protein A56 with …); test: ELISA on coated A56 (100 ng), fit; R square 0.9274
[11] = biological target: T1, A56-C-His (recombinant protein A56 with …); test: OCTET (row 'KD (M) by OCTET'; the legend calls it SPR)
[12] = biological target: T1, A56-C-His (recombinant protein A56 with …); test: ELISA (row 'KD (M) by ELISA')
[13] = biological target: T1, A56-C-His (recombinant protein A56 with …); test: ELISA on coated A56 (100 ng), fit; R square 0.9942
[14] = biological target: T1, A56-C-His (recombinant protein A56 with …); test: OCTET (row 'KD (M) by OCTET'; the legend calls it SPR)
[15] = biological target: T1, A56-C-His (recombinant protein A56 with …); test: ELISA (row 'KD (M) by ELISA')
[16] = biological target: T1, A56-C-His (recombinant protein A56 with …); test: ELISA on coated A56 (100 ng), fit; R square 0.9953
[17] = biological target: T1, A56-C-His (recombinant protein A56 with …); test: OCTET (row 'KD (M) by OCTET'; the legend calls it SPR)

Binder	Kd [1] [nM]	koff [1] [s⁻¹]	kon [5] [M⁻¹ s⁻¹]	other results
B1	2.28	0.000561	246000	Kd [2]: 0.024 nM; Kd [3]: 0.024 nM; Kd [4]: 0.228 nM
B2	0.492	9.67e-05	196000	Kd [6]: 0.029 nM; Kd [7]: 0.029 nM; Kd [8]: 0.492 nM
B3	0.739	8.26e-05	112000	Kd [9]: 0.033 nM; Kd [10]: 0.033 nM; Kd [11]: 0.739 nM
B4	0.196	1.96e-05	100000	Kd [12]: 0.026 nM; Kd [13]: 0.026 nM; Kd [14]: 0.196 nM
B5	0.438	2.47e-05	56400	Kd [15]: 0.044 nM; Kd [16]: 0.044 nM; Kd [17]: 0.438 nM
